Test results: article PMC9813358, “Insights into the GSDMB-mediated cellular lysis and its targeting by IpaH7.8” (Nature Communications, 2023)

B1: IpaH7.8 protein (residues 23–565) [Shigella flexneri] / GSDMB (residues 1-411) [human] (parent complex)
chain 1: SNEHYLRILTEWEKNSSPGEERGIAFNRLSQCFQNQEAVLNLSDLNLTSLPELPKHISALIVENNKLTSLPKLPAFLKELNADNNRLSVIPELPESLTTLSVRSNQLENLPVLPNHLTSLFVENNRLYNLPALPEKLKFLHVYYNRLTTLPDLPDKLEILCAQRNNLVTFPQFSDRNNIRQKEYYFHFNQITTLPESFSQLDSSYRINISGNPLSTRVLQSLQRLTSSPDYHGPQIYFSMSDGQQNTLHRPLADAVTAWFPENKQSDVSQIWHAFEHEEHANTFSAFLDRLSDTVSARNTSGFREQVAAWLEKLSASAELRQQSFAVAADATESCEDRVALTWNNLRKTLLVHQASEGLFDNDTGALLSLGREMFRLEILEDIARDKVRTLHFVDEIEVYLAFQTMLAEKLQLSTAVKEMRFYGVSGVTANDLRTAEAMVRSREENEFTDWFSLWGPWHAVLKRTEADRWAQAEEQKYEMLENEYSQRVADRLKASGLSGDADAEREAGAQVMRETEQQIYRQLTDEVLALRLSENGSRLHHS
chain 2: MFSVFEEITRIVVKEMDAGGDMIAVRSLVDADRFRCFHLVGEKRTFFGCRHYTTGLTLMDILDTDGDKWLDELDSGLQGQKAEFQILDNVDSTGELIVRLPKEITISGSFQGFHHQKIKISENRISQQYLATLENRKLKRELPFSFRSINTRENLYLVTETLETVKEETLKSDRQYKFWSQISQGHLSYKHKGQREVTIPPNRVLSYRVKQLVFPNKETMSAGLDIHFRGKTKSFPEGKSLGSEDSRNMKEKLEDMESVLKDLTEEKRKDVLNSLAKCLGKEDIRQDLEQRVSEVLISGELHMEDPDKPLLSSLFNAAGVLVEARAKAILDFLDALLELSEEQQFVAEALEKGTLPLLKDQVKSVMEQNWDELASSPPDMDYDPEARILCALYVVVSILLELAEGPTSVSS

Variants of: B1
Assay: ITC; parent: 94 nM
chain 1 N124A gave a Kd of 360 nM.
